Measured values taken from patent US20160264649A1.

How the values were obtained:
Assay in all cases: cell-based or functional assay
[1] = target: HIV-1 92BR020 Env (HIV-1)
[2] = target: HIV-1 92UG001 Env (HIV-1)
[3] = target: HIV-1 92UG005 Env (HIV-1)
[4] = target: HIV-1 94UG114 Env (HIV-1)
[5] = target: HIV-1 97ZA012 Env on pseudovirus (HIV-1)
[6] = target: HIV-1 APV-6 Env (HIV-1)
[7] = target: HIV-1 APV_17 Env on pseudovirus (HIV-1)
[8] = target: HIV-1 CAAN.A2 (Acute) Env on pseudovirus (HIV-1)
[9] = target: HIV-1 JRCSF Env on pseudovirus (HIV-1) (UniProt P20871)
[10] = target: HIV-1 LAVI_C22 Env on pseudovirus (HIV-1)
[11] = target: HIV-1 LAVI_C3 Env on pseudovirus (HIV-1)
[12] = target: HIV-1 MGRM-AE-001 Env (HIV-1)
[13] = target: HIV-1 MGRM-AE-002 Env (HIV-1)
[14] = target: HIV-1 MGRM-AE-004 Env (HIV-1)
[15] = target: HIV-1 MGRM-AE-005 Env (HIV-1)
[16] = target: HIV-1 MGRM-AG-001 Env (HIV-1)
[17] = target: HIV-1 MGRM-AG-002 Env (HIV-1)
[18] = target: HIV-1 MGRM-AG-006 Env (HIV-1)
[19] = target: HIV-1 MGRM-AG-013 Env (HIV-1)
[20] = target: HIV-1 MGRM-C-002 Env on pseudovirus (HIV-1)
[21] = target: HIV-1 MGRM-C-005 Env on pseudovirus (HIV-1)
[22] = target: HIV-1 MGRM-C-006 Env on pseudovirus (HIV-1)
[23] = target: HIV-1 MGRM-C-010 Env on pseudovirus (HIV-1)
[24] = target: HIV-1 MGRM-C-015 Env on pseudovirus (HIV-1)
[25] = target: HIV-1 MGRM-C-017 Env on pseudovirus (HIV-1)
[26] = target: HIV-1 MGRM-C-019 Env on pseudovirus (HIV-1)
[27] = target: HIV-1 MGRM-Chronic-B-001 Env on pseudovirus (HIV-1)
[28] = target: HIV-1 MGRM-Chronic-B-002 Env on pseudovirus (HIV-1)
[29] = target: HIV-1 MGRM-Chronic-B-004 Env on pseudovirus (HIV-1)
[30] = target: HIV-1 MGRM-Chronic-B-010 Env on pseudovirus (HIV-1)
[31] = target: HIV-1 MGRM-Chronic-B-017 Env on pseudovirus (HIV-1)
[32] = target: HIV-1 MGRM-Chronic-B-018 Env on pseudovirus (HIV-1)
[33] = target: HIV-1 MGRM-Chronic-B-023 Env on pseudovirus (HIV-1)
[34] = target: HIV-1 MGRM-Chronic-B-024 Env on pseudovirus (HIV-1)
[35] = target: HIV-1 MGRM-D-001 Env (HIV-1)
[36] = target: HIV-1 MGRM-D-005 Env (HIV-1)
[37] = target: HIV-1 MGRM-D-008 Env (HIV-1)
[38] = target: HIV-1 MGRM-D-018 Env (HIV-1)
[39] = target: HIV-1 MGRM-D-019 Env (HIV-1)
[40] = target: HIV-1 MGRM-D-022 Env (HIV-1)
[41] = target: HIV-1 MGRM-D-029 Env (HIV-1)
[42] = target: HIV-1 MGRM-F1-006 Env (HIV-1)
[43] = target: HIV-1 MGRM-F1-012 Env (HIV-1)
[44] = target: HIV-1 MGRM-F1-014 Env (HIV-1)
[45] = target: HIV-1 MGRM-F1-017 Env (HIV-1)
[46] = target: HIV-1 MGRM-F1-018 Env (HIV-1)
[47] = target: HIV-1 MGRM-G-011 Env (HIV-1)
[48] = target: HIV-1 MGRM-G-027 Env (HIV-1)
[49] = target: HIV-1 PVO.4 (Acute) Env on pseudovirus (HIV-1)
[50] = target: HIV-1 QH0692.42 (Acute) Env on pseudovirus (HIV-1)
[51] = target: HIV-1 TRJ0.58 (Acute) Env on pseudovirus (HIV-1)

Substance: 4E10 (antibody)
- neutralization IC50 [1]: 41.4 µg/mL
- neutralization IC90 [1]: > 50 µg/mL
- IC50 (µg/ml), pseudovirus neutralization [2]: 13.6 µg/mL
- IC50 (µg/ml), pseudovirus neutralization [3]: 7.46 µg/mL
- neutralization IC50 [3]: 8.86 µg/mL
- neutralization IC90 [3]: > 50 µg/mL
- IC50 (µg/ml), pseudovirus neutralization [4]: 9.72 µg/mL
- IC50 [5]: 4.7 µg/mL
- neutralization IC50 [6]: 0.4 µg/mL
- IC50 [7]: 10.5 µg/mL
- IC50 [8]: 17.9 µg/mL
- IC50 [9]: 3.3 µg/mL
- IC50 [10]: 2.02 µg/mL
- IC50 [11]: 2.85 µg/mL
- IC50 (µg/ml), pseudovirus neutralization [12]: 0.85 µg/mL
- IC50 (µg/ml), pseudovirus neutralization [13]: 0.55 µg/mL
- IC50 (µg/ml), pseudovirus neutralization [14]: 1.27 µg/mL
- IC50 (µg/ml), pseudovirus neutralization [15]: 0.47 µg/mL
- IC50 (µg/ml), pseudovirus neutralization [16]: 1.12 µg/mL
- IC50 (µg/ml), pseudovirus neutralization [17]: 0.8 µg/mL
- IC50 (µg/ml), pseudovirus neutralization [18]: 1.76 µg/mL
- IC50 (µg/ml), pseudovirus neutralization [19]: 2.61 µg/mL
- IC50 [20]: 18.2 µg/mL
- IC50 [21]: 16.4 µg/mL
- IC50 [22]: 4.94 µg/mL
- IC50 [23]: 11 µg/mL
- IC50 [24]: 2.52 µg/mL
- IC50 [25]: 1.47 µg/mL
- IC50 [26]: 3.49 µg/mL
- IC50 [27]: 1.46 µg/mL
- IC50 [28]: 2.19 µg/mL
- IC50 [29]: 3.7 µg/mL
- IC50 [30]: 1.69 µg/mL
- IC50 [31]: 2.77 µg/mL
- IC50 [32]: 23.2 µg/mL
- IC50 [33]: 27.9 µg/mL
- IC50 [34]: 9.19 µg/mL
- IC50 (µg/ml), pseudovirus neutralization [35]: 1.84 µg/mL
- IC50 (µg/ml), pseudovirus neutralization [36]: 35.2 µg/mL
- IC50 (µg/ml), pseudovirus neutralization [37]: 42.9 µg/mL
- IC50 (µg/ml), pseudovirus neutralization [38]: 3.9 µg/mL
- IC50 (µg/ml), pseudovirus neutralization [39]: 0.04 µg/mL
- IC50 (µg/ml), pseudovirus neutralization [40]: 16.9 µg/mL
- IC50 (µg/ml), pseudovirus neutralization [41]: 5.3 µg/mL
- IC50 (pseudovirus neutralization) [42]: 1.01 µg/mL
- IC50 (pseudovirus neutralization) [43]: 0.37 µg/mL
- IC50 (pseudovirus neutralization) [44]: 7.36 µg/mL
- IC50 (pseudovirus neutralization) [45]: 4.92 µg/mL
- IC50 (pseudovirus neutralization) [46]: 3.6 µg/mL
- IC50 (µg/ml), pseudovirus neutralization [47]: 1.44 µg/mL
- IC50 (µg/ml), pseudovirus neutralization [48]: 1.19 µg/mL
- IC50 [49]: 18.3 µg/mL
- IC50 [50]: 12.7 µg/mL
- IC50 [51]: 11.9 µg/mL

Substance: 1496_C09 (PG9) (TCN-109) (antibody)
- IC50 (µg/ml), pseudovirus neutralization [2]: 41.8 µg/mL
- IC50 [5]: 1.27 µg/mL
- neutralization IC50 [6]: 0.0869 µg/mL
- neutralization IC90 [6]: 1.96 µg/mL
- IC50 [7]: 14.6 µg/mL
- IC50 [8]: 5.67 µg/mL
- IC50 [9]: 0.003 µg/mL
- IC50 [11]: 1.45 µg/mL
- IC50 (µg/ml), pseudovirus neutralization [12]: 2.97 µg/mL
- IC50 (µg/ml), pseudovirus neutralization [13]: 0.04 µg/mL
- IC50 (µg/ml), pseudovirus neutralization [14]: 0.01 µg/mL
- IC50 (µg/ml), pseudovirus neutralization [15]: 0.16 µg/mL
- IC50 (µg/ml), pseudovirus neutralization [16]: 8.83 µg/mL
- IC50 (µg/ml), pseudovirus neutralization [17]: 0.04 µg/mL
- IC50 (µg/ml), pseudovirus neutralization [19]: 0.23 µg/mL
- IC50 [21]: 2.98 µg/mL
- IC50 [22]: 0.23 µg/mL
- IC50 [23]: 12.4 µg/mL
- IC50 [24]: 0.5 µg/mL
- IC50 [25]: 1.52 µg/mL
- IC50 [26]: 0.01 µg/mL
- IC50 [28]: 1.41 µg/mL
- IC50 [30]: 0.004 µg/mL
- IC50 [31]: 0.32 µg/mL
- IC50 [32]: 0.16 µg/mL
- IC50 [33]: 0.04 µg/mL
- IC50 [34]: 0.18 µg/mL
- IC50 (µg/ml), pseudovirus neutralization [36]: 0.59 µg/mL
- IC50 (µg/ml), pseudovirus neutralization [37]: 6.86 µg/mL
- IC50 (µg/ml), pseudovirus neutralization [39]: 0.03 µg/mL
- IC50 (pseudovirus neutralization) [42]: 1.45 µg/mL
- IC50 (pseudovirus neutralization) [43]: 0.01 µg/mL
- IC50 (pseudovirus neutralization) [44]: 0.01 µg/mL
- IC50 (pseudovirus neutralization) [46]: 0.03 µg/mL
- IC50 (µg/ml), pseudovirus neutralization [47]: 0.19 µg/mL
- IC50 (µg/ml), pseudovirus neutralization [48]: 0.01 µg/mL
- IC50 [49]: 4.01 µg/mL
- IC50 [51]: 0.43 µg/mL
